“Also recorded” adds a separate entry of the source.

In series [1] the test system is HT29 cell line expressing human B7-H4, SKBR3, HCC1569. Put plainly: Cytotoxicity assay versus 1D11 ADC. It is filed as cell-based. Particulars: six days. The method, then:
Cell lines were detached from tissue culture flasks by accutase (Gibco, Paisley, UK), pelleted by centrifugation, and resuspended in growth media (McCoy's 5A,10% FBS, 400 μg/mL G418 for HT29-hB7H4 clone 44, McCoy's 5A, 10% FBS for SKBR3 and RPMI-1640, 10% FBS for HCC1569). Viable cells were counted by trypan blue exclusion using a haemocytometer. Cell densities were adjusted to 2.7×10^4 cells/mL in growth media. 75 μL/well of the cell suspension (2×10^3 cells) was added to 96-well white walled clear bottom tissue culture treated plates and cultured overnight in a humidified tissue culture incubator at 37° C. in 5% CO2. […]
Cells were cultured in the presence of ADCs or DPBS (mock-treated control cells) for six days. Cell viability was assessed using CellTiter-Glo® assay: 100 μL of CellTiter-Glo® (Promega, Southampton, UK) was added to each well. […] Luminescence was measured using an Envision multilabel plate reader (Perkin Elmer, Seer Green, UK). The potency for test article antibodies (e.g. 1D11-MMAE or E02-GL-MMAE or E02-GL-SG3249) was determined by generating half-maximal inhibitory concentration (IC50) values using a nonlinear regression model [log agonist vs. response—variable slope (three parameters)] in GraphPad Prism, version 7 (GraphPad Software, La Jolla, CA) and presented as percent cell viability relative to Mock-treated control cells — […]

The subject of series [2] is HT29 WT (not expressing B7-H4). Put plainly: Bystander killing in vitro (conditioned medium). The note with it: donor cells treated 4 days. It is filed as cell-based, human. The method, then: HT29 B7-H4 expressing cells were treated with E02-GL-SG3249 for 4 days, after which the conditioned medium was removed and added to HT29 WT (i.e. not expressing B7-H4).
For a further series, the system named is T168. Description: PDX model. In kind it is in vivo. Particulars: T168, Breast (HR+); 0.3 mg/kg vs vehicle. The text has this: (§1) Patient derived xenograft models were generated using cancer cell lines with varying levels of B7-H4 expression, as outlined in Table 16. […] “E02-GL” antibody has the CDR/VH sequences (e.g. corresponds to) of ZY0EQD-E02 (“GL” means the antibody has been germlined).

In another series the test system is CTG-012. Put plainly: PDX model. Particulars: CTG-012, Breast (Triple negative); 0.3 mg/kg vs vehicle. It is filed as in vivo.
Excerpt: as §1

A further series has as its system HBCx-10. Put plainly: PDX model. In kind it is in vivo. The note with it: HBCx-10, Breast (Triple negative); 0.3 mg/kg vs vehicle.
Excerpt: as §1

Another series concerns CTG-1086. Description: PDX model. In kind it is in vivo. Particulars: CTG-1086, Ovarian; 0.3 mg/kg vs vehicle.
Excerpt: as §1

The next series relates to CTG-1106. Description: PDX model. In kind it is in vivo. Particulars: CTG-1106, Breast (Triple negative); 0.3 mg/kg vs vehicle.
Excerpt: as §1

The subject of another series is HBCx-11. Description: PDX model. In kind it is in vivo. The note with it: HBCx-11, Breast (Triple negative); 0.3 mg/kg vs vehicle.
Excerpt: as §1

The subject of another series is T272. Description: PDX model. The note with it: T272, Breast (HR+); 0.3 mg/kg vs vehicle. In kind it is in vivo.
Excerpt: as §1

For the next series, the system named is CTG-052. Description: PDX model. It is filed as in vivo. The note with it: CTG-052, Breast (Triple negative); 0.3 mg/kg vs vehicle.
Excerpt: as §1

The next series relates to HBCx-9. Put plainly: PDX model. In kind it is in vivo. The note with it: HBCx-9, Breast (Triple negative); 0.3 mg/kg vs vehicle.
Excerpt: as §1

A further series has as its system HCC1954 tumour xenograft. Put plainly: gamma H2AX immunohistochemistry in tumour xenograft. In kind it is in vivo. Particulars: up to 10 days following treatment. The method, then: Tumour xenograft models were generated (using HCC1954 cells), and treated with E02-GL-SG3249. “E02-GL” antibody has the CDR/VH sequences (e.g. corresponds to) of ZY0EQD-E02 (“GL” means the antibody has been germlined).
Immunohistochemistry was then performed to determine gamma H2AX (marker of double strand breaks) following treatment.

For another series, the system named is HEK293 JI parental. Put plainly: E02-GL MESF on cell line. In kind it is cell-based. Particulars: B7-H4 negative.
The test system of series [3] is HEK 293 Jump In TREX cells stably expressing murine B7-H4. Description: Flow cytometry binding. It is filed as cell-based. Particulars: listed as E02-INT. The text has this:
(§2) Flow cytometry was used to measure binding of antibody E02-INT to non-transduced HEK 293 Jump In TREX cells and to HEK 293 Jump In TREX cells stably expressing human, murine, or cynomolgus monkey B7-H4.
For orientation: Flow cytometry measures light scatter and fluorescence of single cells or particles in a stream.

Series [4] concerns HEK 293 Jump In TREX cells stably expressing human B7-H4. Description: Flow cytometry binding. It is filed as cell-based.
Excerpt: as §2

In series [5] the test system is HEK 293 Jump In TREX cells stably expressing cynomolgus monkey B7-H4. Description: Flow cytometry binding. It is filed as cell-based.
Excerpt: as §2

Series [6] deals with non-transduced HEK 293 Jump In TREX cells. Put plainly: Flow cytometry binding. Particulars: B7-H4-negative. In kind it is cell-based.
Excerpt: as §2

Series [7] has as its system live cells (B7-H4 on membrane). Put plainly: Internalisation kinetics in live cells (AF647 label). It is filed as cell-based. Particulars: AF647 conjugate; co-visualisation with Lamp1-AF488. The method, then:
E02-GL conjugated to fluorescence marker AF647 was used to treat live cells. At 0 mins following treatment, clusters of fluorescence were noted on the cell membranes (indicative of binding to B7-H4 present on the membrane).

B1: E02-GL-SG3249: clone E02-GL (Maia heavy chain backbone) conjugated to the PBD cytotoxin SG3249 (conjugate)
heavy: QVQLQQWGAGLLKPSETLSLACTVYGGSFSGYYWNWIRQPPGKGLEWIGEINHSGSTSYNPSLKSRVTISVDTSKNQFSLKLSSVTAADTAVYYCARVLYNWNVDSWGQGTLVTVSSASTKGPSVFPLAPSSKSTSGGTAALGCLVKDYFPEPVTVSWNSGALTSGVHTFPAVLQSSGLYSLSSVVTVPSSSLGTQTYICNVNHKPSNTKVDKRVEPKSCDKTHTCPPCPAPELLGGPSCVFLFPPKPKDTLMISRTPEVTCVVVDVSHEDPEVKFNWYVDGVEVHNAKTKPREEQYNSTYRVVSVLTVLHQDWLNGKEYKCKVSNKALPAPIEKTISKAKGQPREPQVYTLPPSREEMTKNQVSLTCLVKGFYPSDIAVEWESNGQPENNYKTTPPVLDSDGSFFLYSKLTVDKSRWQQGNVFSCSVMHEALHNHYTQKSLSLSPGK
light: DIQMTQSPSSLSASVGDRVTITCRASQDIRNDVGWYQQKPGKAPKRLIYAASRLQSGVPSRFSGSGSGTEFTLTISSLQPEDFATYYCLQHNSYPRTFGQGTKVEIKRTVAAPSVFIFPPSDEQLKSGTASVVCLLNNFYPREAKVQWKVDNALQSGNSQESVTEQDSKDSTYSLSSTLTLSKADYEKHKVYACEVTHQGLSSPVTKSFNRGEC
B1: in series [1], the “cytotoxicity potency compared with 1D11 conjugated to (A114C-) MMAE” value was “superior cytotoxicity potency”. In addition, the “viability of HT29 WT after conditioned medium from treated HT29 B7-H4 expressing cells” value in series [2] is on record as “rapid decrease in cell viability”. Also, the “% Tumour Growth Inhibition (TGI)” value was found to be 60% in the series with T168; 90% with CTG-012; 90% with HBCx-10; 20% in the series on CTG-1086; 30% in the series on CTG-1106; 80% with HBCx-11. The figures for the “% Tumour Growth Inhibition (TGI)” value in the series on T272, in the series on CTG-052 and in the series with HBCx-9 were 30%, 30% and 70%, respectively. Moreover, in the series on HCC1954 tumour xenograft, the “gamma H2AX positive tumour cells” value is recorded as “Increased numbers of gamma H2AX positive tumour cells”.

B2: E02-GL: germlined ZY0EQD-E02, VH SEQ ID NO: 45, VL SEQ ID NO: 34; antibody intermediate of E02-GL-SG3932 (antibody, V domains shown)
VH: QVQLQQWGAGLLKPSETLSLACTVYGGSFSGYYWNWIRQPPGKGLEWIGEINHSGSTSYNPSLKSRVTISVDTSKNQFSLKLSSVTAADTAVYYCARVLYNWNVDSWGQGTLVTVSS
VL: DIQMTQSPSSLSASVGDRVTITCRASQDIRNDVGWYQQKPGKAPKRLIYAASRLQSGVPSRFSGSGSGTEFTLTISSLQPEDFATYYCLQHNSYPRTFGQGTKVEIK
Consider B2, for which, in the series with HEK293 JI parental, the “E02-GL MESF” value is listed as 3,266 MESF. The cellular binding result in series [3] is given as “bound; also recorded: reduced compared to cells expressing human or cynomolgus monkey B7-H4”; in series [4] it was “bound”; in series [5], “bound”; in series [6], “did not bind”. In addition, the “internalisation of bound antibody” value in series [7] was “internalised by endocytosis”.
